Protein production data for 21 sequences are collected here from a protein production outcome set (Wang et al. 2014).

The nature of this series: label from the status in PepcDB records.

Regarding “MSLSEIKHWVFDMDGTLTIAVHDFAAIREALSIPAEDDILTHLAALPADESAAKHAWLLEHERDLAQGSRPAPGAVELVRELAGRGYRLGILTRNARELAHVTLEAIGLADCFAEADVLGRDEAPPKPHPGGLLKLAEAWDVSPSRMVMVGDYRFDLDCGRAAGTRTVLVNLPDNPWPELTDWHARDCAQLRDLLSA”, the protein production result is “not failed”.

As to “MSLSKKTIYIAGLGLIGGSLALGIKRDHPDYEILGYNRSDYSRNIALERGIVDRATGDFKEFAPLADVIILAVPIKQTMAYLKELADLDLKDNVIITDAGSTKREIVEAAERYLTGKNVQFVGSHPMAGSHKSGAIAADVTLFENAYYIFTPTSLTKETTIPELKDILSGLKSRYVEIDAAEHDRVTSQISHFPHLLASGLMEQAADYAQAHEMTNHFAAGGFRDMTRIAESEPGMWASILMTNGPAVLDRIEDFKKRLDHVADLIKAEDESAIWEFFDNGRKKRKEMEIHKKGGVESAFDIFVDVPDREGHHHHHH”, the protein production result is “not failed”. Turning to “MSLSKPLFIFEMANNHMGNVEHGVALIRAIRESCQGFDFDFGFKLQYRNLDTFIHSSFKGRDDVKYVKRFEETRLQPEQMQKLVAEMKANGFKAICTPFDEESVDLIEAHGIEIIKIASCSFTDWPLLERIARSDKPVVASTAGARREDIDKVVSFMLHRGKDLTIMHCVAEYPTPDDHLHLARIKTLRQQYAGVRIGYSTHEDPDLMEPIMLAVAQGATVFEKHVGLPTDQYGINNYSANPEQVRRWLAAAARALAMLGDGEDDAVSETEQASLRSLRRGVFATRPVAAGEALTADNVSFAFPPVEGQLTANEWSKYVRYTAKTPIAADAPVMAADLEPVNEGHHHHHH”, the protein production entry is on record as “not failed”. The value for “MSLSKVFTIGEILVEIMASKIGQPFDQPGIWNGPYPSGAPAIFIDQVTRLGVPCGIISCVGNDGFGDINIHRLAADGVDIRGISVLPLEATGSAFVTYHNSGDRDFIFNIKNAACGKLSAQHVDENILKDCTHFHIMGSSLFSFHMVDAVKKAVTIVKANGGVISFDPNIRKEMLDIPEMRDALHFVLELTDIYMPSEGEVLLLSPHSTPERAIAGFLEEGVKEVIVKRGNQGASYYSANEQFHVESYPVEEVDPTGAGDCFGGAWIACRQLGFDAHRALQYANACGALAVTRRGPMEGTSRLMEIETFIQRHDMSIREAAQEGHHHHHH” was “not failed”; that for “MSLSLWQQCLARLQDELPATEFSMWIRPLQAELSDNTLALYAPNRFVLDWVRDKYLNNINVLLNDFCGMDAPLLRFEVGSKPLVQTISQPAQSHHNPVSVARQQPVRMAPVRPSWDNSPVQAEHTYRSNVNPKHTFDNFVEGKSNQLARAAARQVADNPGGAYNPLFLYGGTGLGKTHLLHAVGNGIIARKPNAKVVYMHSERFVQDMVKALQNNAIEEFKRYYRSVDALLIDDIQFFANKERSQEEFFHTFNALLEGNQQIILTSDRYPKEINGVEDRLKSRFGWGLTVAIEPPELETRVAILMKKADENDIRLPGEVAFFIAKRLRSNVRELEGALNRVIANANFTGRSITIDFVREALRDLLALQEKLVTIDNIQKTVAEYYKIKIADLLSKRRSRSVARPRQMAMALAKELTNHSLPEIGDAFGGRDHTTVLHACRKIEQLREESHDIKEDFSNLIRTLSSLEHHHHHH” was “not failed”.

“MSLSNGELAILVFGYPETMANQVIAYFQEFGTILEDFEVLRKPQAMTVGLQDRQFVPIFSGNSWTKITYDNPASAVDALLENGAVFNGVLLGVIPYTKDAVERLQKRKLTSSEDIGSGITTAAAEGHHHHHH”: the protein production entry was “not failed”. The entry for “MSLSNVFYRSSKPYPVAVRGEGVFLYDDAGRRYLDGSSGALVANIGHGRAEVGERMAAQAARLPFVHGSQFSSDVLEEYAGRLARFVGLPTFRFWAVSGGSEATESAVKLARQYHVERGEPGRFKVITRVPSYHGASLGSLAASGMGARRELYTPLMRPEAWPKLPKPDPARNGAEDAEGLRALLEREGPETVAAFMAEPVVGASDAALAPAPGYYERVRDICDEAGIIFIADEVMSGMGRCGSPLALSRWSGVTPDIAVLGKGLAAGYAPLAGLLAAPQVYETVMGGSGAFMHGFTYAGHPVSVAAGLSVLDIVEREDLTGAAKERGAQLLAGLQALQARFPQMMQVRGTGLLLGVVLGDLATGQAFETPGIASRIGAAALKRGLITYPGSGAEPNGRGDHLLLGPPLSITAAEVDGLLALLAGALEDVLGEGHHHHHH” is “not failed”; for “MSLSPDLLLAFALFALVTSITPGPNNTMLLASGVNFGFNRSIPHILGISCGFFVLVLAVGLGLGAVFEAYPLLYSVLRYVGAVYLLYLAWKIARSGPLSDEQQHHGRPLGYWGAAAFQWVNPKAWVMAVGAISTYTPLQGYFTNVLVIAAVFALINAPTVSLWAACGSLLRNVLRNPRWLRLFNLLMAALLVLSLAPLLFEKMS” it is “failed”. The entry for “MSLSPSARRVQGALETRGFGHLKVVELPASTRTAKEAAQAVGAEVGQIVKSLVFVGEKGAYLFLVSGKNRLDLGKATRLVGGPLRQATPEEVRELTGFAIGGVPPVGHNTPLPAYLDEDLLGYPEVWAAGGTPRALFRATPKELLALTGAQVADLKEG” is “not failed”. Regarding “MSLSRVTEIRYVGYGVKDFDAEKAFYADVWGLEPVGEDANNAWFKAQGADEHHVVQLRRADENRIDVIALAADSRSDVDALRASVEAAGCKVASEPAVLATPGGGYGFRFFSPDGLLFEVSSDVAKGAKRDLARWEGVPVKISHIVLHSPNHQDMVKFFTDVLGFKVSDWLGDFMCFLRCNSAHHRIAILPGPPCLNHVAYDMLSVDDMMRGAHRLKVKGIDIGWGPGRHTAGNNTFSYFVTPGGFVTEYTSELEEVDFDTHQYKVHVPAPMVMDQWGIGTGGPQTLPHPHANPGLFQTAEAEGHHHHHH”, the protein production result is recorded as “not failed”. The value for “MSLSSPNILLTRIDNRLVHGQVGVTWTSTIGANLLVVVDDVVANDDIQQKLMGITAETYGFGIRFFTIEKTINVIGKAAPHQKIFLICRTPQTVRKLVEGGIDLKDVNVGNMHFSEGKKQISSKVYVDDQDLTDLRFIKQRGVNVFIQDVPGDQKEQIPDEGHHHHHH” was “not failed”; that for “MSLSTGATIVIDLGKTLSKVSLWDLDGRMLDRQVRPSIPLEIDGIRRLDAPDTGRWLLDVLSRYADHPVTTIVPVGHGAGIAALTDGRLAFPPLDYEQSIPEAVMADYRSQRDPFARTGSPALPDGLNIGSQLWWLDQLHPDVMANATLLPWAQYWAWFLTGRAVSEVTSLGCHSDLWDPQDGDFSPMAKRLGWAARFAPIVRAGDTVGALLPAIAERTGLSPDVQVLAGLHDSNAALLAARGFAEIADNEATVLSTGTWFIAMRLPATPVDTATLPEARDCLVNVDVHGRPVPSARFMGGREIETLIEIDTRRVDIKPDQPALLAAVPEVLRHGRMILPTLMRGFGPYPHGRFAWINRPEDWFERRAAACLYAALVADTALDLIGSTGRILVEGRFAEADVFVRALASLRPDCAVYTANAHNDVSFGALRLIDPGLRPQGELVRIEPLDTGSWADLDTYRNRWQAEVEAAKVEEGHHHHHH” was “not failed”. The value for “MSLSTMLVAEDLSAVGGISLSSALPVLTAMQYDVAALPTSLLSTHTSGYGTPAVVDLSTWLPQVFAHWTRAQLHFDQALIGYVGSVALCQQITTYLEQQTLSLLVVDPVLGDLGQLYQGFDQDYVAAMRQLIQQADVILPNTTEAALLTGAPYQVTPDLEVILPALQAQLKTGAHAVITDVQRADQIGCAWLDEAGHVQYCGARRLPGHYNGTGDTLAAVIAGLLGRGYPLAPTLARANQWLNMAVAETIAQNRTDDRQGVALGDLLQAILALNEGHHHHHH” was “not failed”; that for “MSLSYVLPTLTYSLAASTLGLLQAIPGAFTGFRHTDSDSARGLLLGIFILTVSALLTLAVSAVFWLASFTLFRVLSRYREYAADRGAVAITGDPAALASALATIDDEMAAAPDHDLRAQDGGLDALYIAPIDETQFKDAPDFVANDVFPQTHPPTEARIERLEAMATEGPT” was “failed”. The entry for “MSLTASYETIKARLDGTVLSATFNAPPMNLIGPEVVRDLVALLEELAHPTAPRVVIFDSADADFFFPHVDMTKVPEYTAEAAKAGGPGDASLGMLFRKLSQLPAVTIAKLRGRARGAGSEFLLACDMRFASRENAILGQPEVGIGAPPGAGAIQHLTRLLGRGRALEAVLTSSDFDADLAERYGWVNRAVPDAELDEFVAGIAARMSGFPRDALIAAKSAINAISLPAPAEVRADAALFQQLVRGEKVQQRTAELFKQGFQTRGATELDLGDALGHLKAVDEGHHHHHH” is “not failed”; for “MSLTGRAFAIPLRTRFRGITVREGMLVRGAAGWGEFSPFAEYGPRECARWWAACYEAAELGWPAPVRDTVPVNATVPAVGPEEAARIVASSGCTTAKVKVAERGQSEANDVARVEAVRDALGPRGRVRIDVNGAWDVDTAVRMIRLLDRFELEYVEQPCATVDELAEVRRRVSVPIAADESIRRAEDPLRVRDAEAADVVVLKVQPLGGVRAALRLAEECGLPVVVSSAVETSVGLAAGVALAAALPELPYACGLATLRLLHADVCDDPLLPVHGVLPVRRVDVSEQRLAEVEIDPAAWQARLAAARAAWEQVEREPGPEGHHHHHH” it is “not failed”.

On to “MSLTIKNSLGQSHDYIKMFVKEGDTVVDATCGNGNDTAFLASLVGENGRVFGFDIQDKAIANTTKKLTDLNLIDRVTLIKDGHQNMDKYIDCPVKAVMFNLGYLPSGDHSISTRPETTIQALSKAMELLVTGGIITVVIYYGGDTGFEEKEKVLEFLKGVDQKKFIVQRTDFINQANCPPILVCIEKISEGHHHHHH”, for which the protein production result is recorded as “not failed”. The entry for “MSLTINVGLLVDETGPTSDVGKGYSLGAELAFKYFNEKGIYTKDGVRVNINYIKRDYAYNPTTAEEYYREFRDRYGVIAIIGWGTADTEKLSDQVDTDKITYISASYSAKLLVKPFNFYPAPDYSTQACSGLAFLASEFGQGKLALAYDSKVAYSRSPIGAIKKAAPSLGLQVVGDYDLPLRATEADAERIAREMLAADPDYVWCGNTISSCSLLGRAMAKVGLDAFLLTNVWGFDERSPQLIGEGGYGKVFGISPFIYPMFGQDVEGIQTIFEAARMNGVSEDQINLRVVQGFVNVWLLIKAIESVTSQDLQERGGEALKEALEANTFDLGGITADTIDYEPGFHLAYRKVFIIKLGENGELQLMGKFEAPSQVDCARYTIEEGHHHHHH” is “not failed”; for “MSLTLYQKKSKMIGIIIPDLNNRFYAQIIDGIQEVIQKEGYTALISFSTNSDVKKYQNAIINFENNNVDGIITSAFTIPPNFHLNTPLVMYDSANINDDIVRIVSNNTKGGKESIKLLSKKIEKVLIQHWPLSLPTIRERIEAMTAEASKLKIDYLLEETPENNPYISAQSALNKSNQFDAIITVNDLYAAEIIKEAKRRNLKIPDDFQLVGYDNNILCGYTSPTISTIDQNPKLIGQTAAHRLLDLMSGNNSTRNSIIDVLPIKRDSTEGHHHHHH” it is “not failed”; for “MSLTNTKTGFSVKDILDLPDTNDEEGSITGTEEDTEGSEATKTPGVLVQSPLENVQNLPLKNPFYDNSDNPYTRWLATTDSIQYSLHGLSANSQDTSAKSPEPSADESPDNDKETSSNGSDSGKKQKEGALFQGTNLRTRAPV” it is “failed”. The value for “MSLTSLIIAEDQNMLRQAMVQLIKLHGDFEILADTDNGLDAMKLIEEYNPNVVILDIEMPGMTGLEVLAEIRKKHLNIKVIIVTTFKRPGYFEKAVVNDVDAYVLKERSIEELVETINKVNNGEKEGHHHHHH” was “not failed”.
